± gives the uncertainty stated by the source.
B1: Zinc finger homeobox protein 4, residues 2086 to 2141; numbered along this chain, Q86UP3 (parent)
chain: RPRTRITDDQLKILRAYFDINNSPSEEQIQEMAEKSGLSQKVIKHWFRNTLFKERQ

Variants of: B1
Assay: abundance fitness (aPCA) (normalised: wild type 0, dead -1); higher = more abundant; growth selection in yeast, the domain comes from the species named
Details: Homo sapiens

**Q.** For RPRTRITDDQLKILRAYFDINNSPSEEQIQEMAEKTGLSQKVIKHWFRNTLFKERQ, which abundance fitness is on record?
**A.** -0.108 ± 0.094

**Q.** For RPRTRITDDQLKILRAYFDINNSPSEEQIQEMAEKYGLSQKVIKHWFRNTLFKERQ, which abundance fitness is on record?
**A.** -0.267 ± 0.1

**Q.** For RPRTRITDDQLKILRAYFDINNSPSEEQIQEMAEKHGLSQKVIKHWFRNTLFKERQ, which abundance fitness is on record?
**A.** -0.367 ± 0.13

**Q.** For RPRTRITDDQLKILRAYFDINNSPSEEQIQEMAEKNGLSQKVIKHWFRNTLFKERQ, which abundance fitness is on record?
**A.** -0.374 ± 0.18

**Q.** For RPRTRITDDQLKILRAYFDINNSPSEEQIQEMAEKQGLSQKVIKHWFRNTLFKERQ, which abundance fitness is on record?
**A.** -0.342 ± 0.11

**Q.** With RPRTRITDDQLKILRAYFDINNSPSEEQIQEMAEKGGLSQKVIKHWFRNTLFKERQ as the variant, how does the abundance fitness read?
**A.** -0.28 ± 0.064

**Q.** With RPRTRITDDQLKILRAYFDINNSPSEEQIQEMAEKEGLSQKVIKHWFRNTLFKERQ as the variant, how does the abundance fitness read?
**A.** -0.244 ± 0.085

**Q.** For RPRTRITDDQLKILRAYFDINNSPSEEQIQEMAEKPGLSQKVIKHWFRNTLFKERQ, which abundance fitness is on record?
**A.** -0.874 ± 0.11

**Q.** Which abundance fitness does the source give for RPRTRITDDQLKILRAYFDINNSPSEEQIQEMAEKAGLSQKVIKHWFRNTLFKERQ here?
**A.** -0.06 ± 0.077

**Q.** For RPRTRITDDQLKILRAYFDINNSPSEEQIQEMAEKLGLSQKVIKHWFRNTLFKERQ, which abundance fitness is on record?
**A.** -0.214 ± 0.079

**Q.** For RPRTRITDDQLKILRAYFDINNSPSEEQIQEMAEKDGLSQKVIKHWFRNTLFKERQ, which abundance fitness is on record?
**A.** -0.857 ± 0.13

**Q.** With RPRTRITDDQLKILRAYFDINNSPSEEQIQEMAEKKGLSQKVIKHWFRNTLFKERQ as the variant, how does the abundance fitness read?
**A.** -0.824 ± 0.15

**Q.** With RPRTRITDDQLKILRAYFDINNSPSEEQIQEMAEKWGLSQKVIKHWFRNTLFKERQ as the variant, how does the abundance fitness read?
**A.** -0.42 ± 0.084

**Q.** Which abundance fitness does the source give for RPRTRITDDQLKILRAYFDINNSPSEEQIQEMAEKCGLSQKVIKHWFRNTLFKERQ here?
**A.** -0.002 ± 0.1

**Q.** With RPRTRITDDQLKILRAYFDINNSPSEEQIQEMAEKRGLSQKVIKHWFRNTLFKERQ as the variant, how does the abundance fitness read?
**A.** -0.533 ± 0.066

**Q.** Which abundance fitness does the source give for RPRTRITDDQLKILRAYFDINNSPSEEQIQEMAEKMGLSQKVIKHWFRNTLFKERQ here?
**A.** -0.213 ± 0.12

**Q.** With RPRTRITDDQLKILRAYFDINNSPSEEQIQEMAEKIGLSQKVIKHWFRNTLFKERQ as the variant, how does the abundance fitness read?
**A.** -0.082 ± 0.15

**Q.** With RPRTRITDDQLKILRAYFDINNSPSEEQIQEMAEKFGLSQKVIKHWFRNTLFKERQ as the variant, how does the abundance fitness read?
**A.** -0.357 ± 0.1

**Q.** With RPRTRITDDQLKILRAYFDINNSPSEEQIQEMAEVSGLSQKVIKHWFRNTLFKERQ as the variant, how does the abundance fitness read?
**A.** -0.418 ± 0.078

**Q.** Which abundance fitness does the source give for RPRTRITDDQLKILRAYFDINNSPSEEQIQEMAEYSGLSQKVIKHWFRNTLFKERQ here?
**A.** -0.537 ± 0.15

**Q.** For RPRTRITDDQLKILRAYFDINNSPSEEQIQEMAEWSGLSQKVIKHWFRNTLFKERQ, which abundance fitness is on record?
**A.** -0.615 ± 0.089

**Q.** Which abundance fitness does the source give for RPRTRITDDQLKILRAYFDINNSPSEEQIQEMAEKSGDSQKVIKHWFRNTLFKERQ here?
**A.** -0.765 ± 0.13

**Q.** With RPRTRITDDQLKILRAYFDINNSPSEEQIQEMAEKSGASQKVIKHWFRNTLFKERQ as the variant, how does the abundance fitness read?
**A.** -0.06 ± 0.076

**Q.** Which abundance fitness does the source give for RPRTRITDDQLKILRAYFDINNSPSEEQIQEMAEKSGKSQKVIKHWFRNTLFKERQ here?
**A.** -0.938 ± 0.15

**Q.** For RPRTRITDDQLKILRAYFDINNSPSEEQIQEMAEKSGISQKVIKHWFRNTLFKERQ, which abundance fitness is on record?
**A.** -0.217 ± 0.14

**Q.** For RPRTRITDDQLKILRAYFDINNSPSEEQIQEMAEKSGCSQKVIKHWFRNTLFKERQ, which abundance fitness is on record?
**A.** -0.11 ± 0.11

**Q.** With RPRTRITDDQLKILRAYFDINNSPSEEQIQEMAEKSGFSQKVIKHWFRNTLFKERQ as the variant, how does the abundance fitness read?
**A.** -0.793 ± 0.13

**Q.** For RPRTRITDDQLKILRAYFDINNSPSEEQIQEMAEKSGESQKVIKHWFRNTLFKERQ, which abundance fitness is on record?
**A.** -0.557 ± 0.1

**Q.** For RPRTRITDDQLKILRAYFDINNSPSEEQIQEMAEKSVLSQKVIKHWFRNTLFKERQ, which abundance fitness is on record?
**A.** -0.378 ± 0.072

**Q.** Which abundance fitness does the source give for RPRTRITDDQLKILRAYFDINNSPSEEQIQEMAEKSLLSQKVIKHWFRNTLFKERQ here?
**A.** -0.014 ± 0.086

**Q.** For RPRTRITDDQLKILRAYFDINNSPSEEQIQEMAEKSMLSQKVIKHWFRNTLFKERQ, which abundance fitness is on record?
**A.** -0.06 ± 0.11

**Q.** For RPRTRITDDQLKILRAYFDINNSPSEEQIQEMAEKSALSQKVIKHWFRNTLFKERQ, which abundance fitness is on record?
**A.** -0.164 ± 0.076

**Q.** For RPRTRITDDQLKILRAYFDINNSPSEEQIQEMAEKSYLSQKVIKHWFRNTLFKERQ, which abundance fitness is on record?
**A.** -0.429 ± 0.14

**Q.** Which abundance fitness does the source give for RPRTRITDDQLKILRAYFDINNSPSEEQIQEMAEKSPLSQKVIKHWFRNTLFKERQ here?
**A.** -0.805 ± 0.11

**Q.** Which abundance fitness does the source give for RPRTRITDDQLKILRAYFDINNSPSEEQIQEMAEKSSLSQKVIKHWFRNTLFKERQ here?
**A.** -0.15 ± 0.081

**Q.** With RPRTRITDDQLKILRAYFDINNSPSEEQIQEMAEKSNLSQKVIKHWFRNTLFKERQ as the variant, how does the abundance fitness read?
**A.** 0.032 ± 0.16

**Q.** With RPRTRITDDQLKILRAYFDINNSPSEEQIQEMAEKSHLSQKVIKHWFRNTLFKERQ as the variant, how does the abundance fitness read?
**A.** -0.137 ± 0.15

**Q.** For RPRTRITDDQLKILRAYFDINNSPSEEQIQEMAEKSILSQKVIKHWFRNTLFKERQ, which abundance fitness is on record?
**A.** -0.602 ± 0.18

**Q.** For RPRTRITDDQLKILRAYFDINNSPSEEQIQEMAEKSELSQKVIKHWFRNTLFKERQ, which abundance fitness is on record?
**A.** -0.092 ± 0.088

**Q.** With RPRTRITDDQLKILRAYFDINNSPSEEQIQEMAEKSDLSQKVIKHWFRNTLFKERQ as the variant, how does the abundance fitness read?
**A.** -0.07 ± 0.097

**Q.** For RPRTRITDDQLKILRAYFDINNSPSEEQIQEMAEKSWLSQKVIKHWFRNTLFKERQ, which abundance fitness is on record?
**A.** -0.535 ± 0.08

**Q.** With RPRTRITDDQLKILRAYFDINNSPSEEQIQEMAEKSCLSQKVIKHWFRNTLFKERQ as the variant, how does the abundance fitness read?
**A.** -0.132 ± 0.095

**Q.** Which abundance fitness does the source give for RPRTRITDDQLKILRAYFDINNSPSEEQIQEMAEKSKLSQKVIKHWFRNTLFKERQ here?
**A.** -0.054 ± 0.1

**Q.** With RPRTRITDDQLKILRAYFDINNSPSEEQIQEMAEKSFLSQKVIKHWFRNTLFKERQ as the variant, how does the abundance fitness read?
**A.** -0.46 ± 0.18

**Q.** For RPRTRITDDQLKILRAYFDINNSPSEEQIQEMAEKSQLSQKVIKHWFRNTLFKERQ, which abundance fitness is on record?
**A.** -0.052 ± 0.1

**Q.** For RPRTRITDDQLKILRAYFDINNSPSEEQIQEMAEKSTLSQKVIKHWFRNTLFKERQ, which abundance fitness is on record?
**A.** -0.083 ± 0.1

**Q.** With RPRTRITDDQLKILRAYFDINNSPSEEQIQEMAEKSRLSQKVIKHWFRNTLFKERQ as the variant, how does the abundance fitness read?
**A.** -0.032 ± 0.073

Reference: the Human Domainome abundance scans (Beltran et al. 2025)
